According to patent US20180222987A1:
Where a chain is given by its changes, count along the chain named.

B1: 12D2-E5 anti-CD3 antibody (antibody, V domains shown)
VH: EVKLVESGGGLVQPGRSLRLSCAASGFNFYAYWMGWVRQAPGKGLEWIGEIKKDGTTINYTPSLKDRFTISRDNAQNTLYLQMTKLGSEDTALYYCAREERDGYFDYWGQGVMVTVSS
VL: QFVLTQPNSVSTNLGSTVKLSCKRSTGNIGSNYVNWYQQHEGRSPTTMIYRDDKRPDGVPDRFSGSIDRSSNSALLTINNVQTEDEADYFCQSYSSGIVFGGGTKLTVL
B2: 8H2-F3 anti-CD3 antibody (antibody, V domains shown)
VH: QIQLVQSGPELKKPGESVKISCKASGYTFTDFAMNWVKQAPGNGLKWMGWINTQTGKPTYADGFKQRFVFSLETSASTIYLQINNLNIEDTATYFCTRGALASVGQGVMVTVSS
VL: DVVMTQTPVSLSVAIGQPASISCKSSQSLVGTSGKTYLNWLLQRPGQSPKRLIYLVSKLDSGIPDRFSGSGSETDFTLKISRVETDDLGVYYCLQGSHFPLTFGSGTKLEIK
B3: 11F9-F8 anti-CD3 antibody (antibody, V domains shown)
VH: EVQLVETGGTLVQPGKSLKLTCATSGFTFSNAWMHWVRQSPEKQLEWVAQIKAKSNNYATYYAESVKGRFTISRDDSKTSVYLQLNSLREEDTAIYYCRGTQYGYNPFDYWGQGVMVTVSS
VL: DVVLTQTPVSLSVSLGGQVSISCRSSQSLVHNNGNTYLSWSLQKPGQSPQVLIYKVSNRFSGISNRFSGSGSGTDFTLKISRVEPDDLGVYYCGQGAHYPFTFGSGTKLEIK
B4: 4B4-D7 anti-CD3 antibody (antibody, V domains shown)
VH: EVQLVETGGRLVQPGRSLKLTCATSGFTFSNAWMHWVRQSPEKQLEWVAQIKARSNNYATYYAESVKGRFTISRDDSKSTIYLQMNSLKEEDTAIYYCRGTYYASKPFDYWGQGVMVTVSS
VL: B3 VL with L4M, N32D, K44R, I63T, N65D, S68T, A97T, H98Q
B5: 3H6-D2 anti-CD3 antibody (antibody, V domains shown)
VH: EVQLVETGGRLVQPGKSLKLTCATSGFTFSNAWMHWVRQSPEKQLEWVAQIKDKSNNYATYYAESVKGRFTISRDDSKSIIYLQMNSLKEEDTAIYYCRALTYYGYKRDAMDGWGHGTSVTVSS
VL: B3 VL with L4M, S41Y, V51L, N65D, A97T, H98Q, S105A, I111L
B6: 13C1-F6 anti-CD3 antibody (antibody, V domains shown)
VH: B3 VH
VL: DVVMTQSPVSLSVSLGGQVSISCRSSQSLVHNNGNTYLSWYLQRSGQSPQLLIYKVSNRLSGISDRFSGSGSGTDFTLKISRIEPDDLGVYYCGQGTQYPFTFGSGTRLEIK
B7: 5B1-G2 anti-CD3 antibody (antibody, V domains shown)
VH: EVQVVETGGSLVQPGKSLKLTCATSGFSFSNAWMHWVRQSPEKQLEWVAQIKDKANNYATYYAESVKGRFTISRDDSKGSIYLQMNSLKEEDTAVYYCRGLYYGLFPSDYWGQGVMVTVSS
VL: B6 VL with S7T, Q43L, R44K, S45P, L60F, S70G, I83L, V90I, R108K
B8: 4E7-C9 anti-CD3 antibody (antibody, V domains shown)
VH: EVQVVETGGSLVQPGKSLKLTCATSGFTFSNAWMHWVRQSPEKQLEWVAQIKDKSNNYATYYAESLKGRFTISRDDPKRSIYLQMNSLREEDTAIYYCRYVHYGIGYAMDAWGQGTSVTVSS
VL: B3 VL with L4M, V30E, S41Y, V51P, N65D, A97T, H98Q, S105P, I111L
B9: humanized 4B4 Fab 4B4_9 (VL2B / VH2A) (Fab, V domains shown)
VH: B4 VH with R10G, R16G, Q44G, K89R, E90A
VL: B3 VL with L4M, L15P, Q18P, N32D, G34A, I63V, N65D, S68T, A97T, H98Q
B10: 18G9-H11 anti-CD3 antibody (antibody, V domains shown)
VH: EVQLVETGGSLVQPGKSLKLTCATSGFTFSNAWIQWVRQSPEKQLEWVAQIKAKSNNYATYYAESVKGRFTISRDDSKSSVYLQMNSLKEEDTALYYCTWRHYYSSHTMDAWGQGTLVTVSS
VL: B3 VL with L4M, S41Y, V51L, N65D, E84A, D86T, A97S, H98Q, S105A, I111L
B11: 11D7-C3 anti-CD3 antibody (antibody, V domains shown)
VH: B7 VH with V4F, S28T, D53A, A55S, G79S, I81V, V95T, F106S
VL: B3 VL with L4M, S41Y, V51L, N65D, A97T
B12: 12G3-E8 anti-CD3 antibody (antibody, V domains shown)
VH: EVRVVETGGSLVQPGKSLKLTCATSGFTFSLAWMHWVRQSPEKKLEWVAQIKDKANNYATYYAESVKGRFTISRDDSKRSVYLQMNRLKEEDTAIYYCRGVYYGFSMTPFDYWGQGVMVTVSS
VL: B3 VL with V3A, L4M, S41Y, N65D, T74A, A97T, H98Q, S105A, I111L
B13: 16F8-A7 anti-CD3 antibody (antibody, V domains shown)
VH: VETGGNLVQPGKSLKLTCATSGFTFSNAWMHWVRQSPEKQLEWVAQIKAKSNNYATYYAESVKGRFTISRDDSKSSVYLQMNSLKEEDTAIYYCRYVNYGLAPMDVWGQGTSVTVSS
VL: B3 VL with L4M, S41Y, V51L, I63F, N65D, A97T, H98Q, S105A, I111L
B14: 10E6-G6 anti-CD3 antibody (antibody, V domains shown)
VH: B3 VH with T10G, P14S, F29V, S30T, A59E, T79S, L85M, R89K
VL: B3 VL with L4M, T7S, N35Y, S41Y, L52F, N65D, V83I, A97T
B15: 10F4-C10 anti-CD3 antibody (antibody, V domains shown)
VH: EVQLVETGGSLVQPGKSLKITCATSGFTFSNAWMHWVRQSPEKQLEWVAQIKAKSNNYATYYAESVKGRFTISRDDSKSSIYLQMNSLKEEDTAIYYCRAVNYGNYPLDYWGQGVMVTVSS
VL: B3 VL with L4M, S41C, V51L, N65D, A97T, H98Q, S105A, I111L
B16: 11F3-B9 anti-CD3 antibody (antibody, V domains shown)
VH: EVQLVETGGSLVQPGKSLTLTCATSGFTFSNAWMHWVRQSPEKQLEWVAQIKAKSNNYATYYAESVKGRFTISRDDSKRSVYLQMNSLKEEDTAIYYCRYVNYGLAPMDVWGQGTSVTVSS
VL: B3 VL with L4M, N32D, S41Y, V51L, I63F, N65D, A97T, H98Q, S105A, I111L
B17: 20E5-F10 anti-CD3 antibody (antibody, V domains shown)
VH: EVQLVETGENLVQPGKSLRLTCATSGFSFSNAWMHWIRQSPEKQLEWVAQIKDKSNNYATYYAESVNGRFTISRDDSKSSIYLHMDNLKEEDSAIYYCRYVHYGVRFFYTMDVWGQGTSVTVSS
VL: B3 VL with L4M, G17D, S25P, S41Y, Q50H, V51P, N65D, A97T, H98Q
B18: 18H11-F10 anti-CD3 antibody (antibody, V domains shown)
VH: EVQLVESGGGLVQPGRSLKLSCAASGFIFSDYYMAWVRQAPKKGLEWVATISISGSRTYYPDSVKGRFTVSRDNAKSSLYLQMNSLKSEDTATYYCATNNPGGWFVYWGQGTLVTVSS
VL: NIQMTQSPSLLSASVGDRVTLSCKAGQNINNDLAWYQQKLGEAPRLLIYNANSLQTGIPSRFSGSGSGADFTLTISSLQPEDVATYFCQQYSSGDTFGAGTKLELK
B19: humanized 4B4 Fab 4B4_1 (VL1a / VH1B) (Fab, V domains shown)
VH: B4 VH with E1Q, R10G, Q13K, R16Q, Q44G, E64V, K89T, E90P
VL: DVVMTQTPVSLSVSVGGRVSISCRSSQSLVHDNGNTYLSWSLQKPGKSPKVLIYKVSNRFSGVSSRFTGSGSGTDFTLKISSVQPDDLGVYYCGQGTQYPFTFGSGTKLEIK
B20: humanized 4B4 Fab 4B4_6 (VL1a / VH1A) (Fab, V domains shown)
VH: B4 VH with E1Q, R10G, Q13K, R16Q, Q44G, K89T, E90P
VL: B19 VL
B21: humanized 4B4 Fab 4B4_7 (VL1b / VH1A) (Fab, V domains shown)
VH: B4 VH with E1Q, R10G, Q13K, R16Q, Q44G, K89T, E90P
VL: B19 VL with G34A
B22: humanized 4B4 Fab 4B4_2 (VL1b / VH1B) (Fab, V domains shown)
VH: B4 VH with E1Q, R10G, Q13K, R16Q, Q44G, E64V, K89T, E90P
VL: B19 VL with G34A
B23: 6C9-C9 anti-CD3 antibody (antibody, V domains shown)
VH: AVQLVESGGGLVRPKESLKISCAASGFTFRNAAMYWVRQAPGKGLEWVARIRTQPNNYAKYYADSVKDRFTISRDDSKSMVYLQMDNLKTEDTAMYYCTGLVVTAMDAWGQGTSVTVSS
VL: DIQMTQSPSFLSASVGDRVTINCKASQNINKYLNWYQQKLGEAPKLLIYVTNNLQTGIPSRFSGSGSGTDYTLTISSLQPEDVATYFCLQHRSMYTFGTGTKLELK
B24: 13H2-C3 anti-CD3 antibody (antibody, V domains shown)
VH: B16 VH with V2E, Q3E, T19K, E42D, R79S, S87N, N102H, V110A
VL: B6 VL with S7T, R44K, S45A, L60F, T77I, I83V, Y91F, S105A, R108K, I111L
B25: humanized 4B4 Fab 4B4_5 (VL2C / VH6D) (Fab, V domains shown)
VH: QVQLVESGGGVVQPGRSLRLSCATSGFTFSNAWMHWVRQAPGKQLEWVAQIKARSNNYATYYADSVKGRFTISRDDSKSTIYLQMNSLRAEDTAVYYCRGTYYASKPFDYWGQGTLVTVSS
VL: DIVMTQTPLSLSVTPGQPASISCKSSQSLVHDNGNTYLSWSLQKPGQSPQVLIYKVSNRFSGVPDRFSGSGSGTDFTLKISRVEAEDVGVYYCGQGTQYPFTFGSGTKLEIK
B26: humanized 4B4 Fab 4B4_11 (VL1_CM3 / VH6_BM2) (Fab, V domains shown)
VH: B25 VH with G10R, S21T, T24A, D64E, L116T
VL: B25 VL with I2V, T7S, P15L, A19V, K24R, G34A, K44R, Q50R
B27: humanized 4B4 Fab 4B4_10 (VL1_CM2 / VH6_BM2) (Fab, V domains shown)
VH: B25 VH with G10R, S21T, T24A, D64E, L116T
VL: B25 VL with I2V, T7S, P15L, A19V, K24R, K44R, Q50R

Tests used:
[1] = molecular target: Macaca fascicularis CD3ε/δ-Fc fusion heterodimer (Macaca fascicularis) (UniProt Q95LI8); assay: SPR single point, hybridoma supernatant
Macaca fascicularis CD3ε/δ-Fc fusion heterodimer (Macaca fascicularis), sequence (chain, as listed by the source mutant, chain 1 of 2): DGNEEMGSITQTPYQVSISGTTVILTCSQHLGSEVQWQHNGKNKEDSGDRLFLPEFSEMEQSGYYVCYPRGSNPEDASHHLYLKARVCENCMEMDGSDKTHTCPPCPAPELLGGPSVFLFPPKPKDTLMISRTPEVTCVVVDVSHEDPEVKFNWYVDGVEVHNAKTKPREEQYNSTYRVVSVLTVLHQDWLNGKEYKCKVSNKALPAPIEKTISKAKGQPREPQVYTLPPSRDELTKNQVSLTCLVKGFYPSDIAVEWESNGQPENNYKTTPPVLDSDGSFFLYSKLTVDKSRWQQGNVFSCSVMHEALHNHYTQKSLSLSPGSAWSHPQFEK
Macaca fascicularis CD3ε/δ-Fc fusion heterodimer (Macaca fascicularis), sequence (Q95LI8 22-105, stated change not applied, chain 2 of 2): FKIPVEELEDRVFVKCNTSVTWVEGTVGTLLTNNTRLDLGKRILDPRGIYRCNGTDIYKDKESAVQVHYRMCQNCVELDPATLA

[2] = molecular target: Macaca fascicularis CD3ε/δ-Fc fusion heterodimer (Macaca fascicularis) (UniProt Q95LI8); assay: SPR Biacore, Fab; unit inferred

Row | Binder | RU at 25 nM [1] | Kd [2]
1 | B1 | 5 RU | 
2 | B2 | 40 RU | 
3 | B3 | 16 RU | 
4 | B4 | 14 RU | 
5 | B5 | 7 RU | 
6 | B6 | 15.5 RU | 
7 | B7 | 0.5 RU | 
8 | B8 | 10 RU | 
9 | B9 |  | 12.1 nM
10 | B10 | -7 RU | 
11 | B11 | 10 RU | 
12 | B12 | 17 RU | 
13 | B13 | 22.5 RU | 
14 | B14 | 0 RU | 
15 | B15 | 27 RU | 
16 | B16 | 17 RU | 
17 | B17 | 8 RU | 
18 | B18 | 55 RU | 
19 | B19 |  | 3.13 nM
20 | B20 |  | 1.19 nM
21 | B21 |  | 7.28 nM
22 | B22 |  | 7.57 nM
23 | B23 | 32 RU | 
24 | B24 | 7 RU | 
25 | B25 |  | 16.6 nM
26 | B26 |  | 20.4 nM
27 | B27 |  | 8.94 nM
